Our source for the Ka values is PMC3498133 (2012).

Several values for one entry are separate records, joined by “and”; a condition that tells them apart may be missing. Equal entries are not always repeated.

In the assay the target is SpcU (Pseudomonas aeruginosa, UniProt O66100 1-137). The assay can be described thus: ITC. (In general: ITC needs no label: the signal is the heat of the interaction.)

B1: ExoU (natural protein)
chain: MHIQSLGATASSLNQEPVETPSQAAHKSASLRQEPSGQGLGVALKSTPGILSGKLPESVSDVRFSSPQGQGESRTLTDSAGPRQITLRQFENGVTELQLSRPPLTSLVLSGGGAKGAAYPGAMLALEEKGMLDGIRSMSGSSAGGITAALLASGMSPAAFKTLSDKMDLISLLDSSNKKLKLFQHISSEIGASLKKGLGNKIGGFSELLLNVLPRIDSRAEPLERLLRDETRKAVLGQIATHPEVARQPTVAAIASRLQSGSGVTFGDLDRLSAYIPQIKTLNITGTAMFEGRPQLVVFNASHTPDLEVAQAAHISGSFPGVFQKVSLSDQPYQAGVEWTEFQDGGVMINVPVPEMIDKNFDSGPLRRNDNLILEFEGEAGEVAPDRGTRGGALKGWVVGVPALQAREMLQLEGLEELREQTVVVPLKSERGDFSGMLGGTLNFTMPDEIKAHLQERLQERVGEHLEKRLQASERHTFASLDEALLALDDSMLTSVAQQNPEITDGAVAFRQKARDAFTELTVAIVSANGLAGRLKLDEAMRSALQRLDALADTPERLAWLAAELNHADNVDHQQLLDAMRGQTVQSPVLAAALAEAQRRKVAVIAENIRKEVIFPSLYRPGQPDSNVALLRRAEEQLRHATSPAEINQALNDIVDNYSARGFLRFGKPLSSTTVEMAKAWRNKEFT
In the case of B1, the Ka was 3.08e+07 M⁻¹ and 1.77e+07 M⁻¹.
